Results on 7 molecules are retold here after patent publication US20210388087A1.

Test [1] addresses T1, Human CD3eg linker (human).
T1 chain: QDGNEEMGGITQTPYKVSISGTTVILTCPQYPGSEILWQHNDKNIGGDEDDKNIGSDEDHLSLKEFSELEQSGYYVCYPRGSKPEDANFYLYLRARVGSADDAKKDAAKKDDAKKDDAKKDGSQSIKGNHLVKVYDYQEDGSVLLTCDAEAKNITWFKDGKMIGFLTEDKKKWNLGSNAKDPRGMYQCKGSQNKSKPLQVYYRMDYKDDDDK
As to the kind of experiment: SPR Biacore T200, 25 C, Ab captured on anti-human Fc, antigen as analyte. As to conditions: remark: other sources report otherwise.

Test [2] addresses Human CD3eg linker (human). As to the kind of experiment: SPR (Biacore T200), 37 degrees C, antibody captured by anti-human Fc on CM4 chip, recombinant human CD3 as analyte, 1:1 model. (SPR reads the build-up and loss of mass on a sensor chip optically.)
Test [3] has as its target CD3 epsilon homodimer protein (UniProt P07766). Briefly: SPR, antibody over immobilised CD3e homodimer.

Chain of CD3 epsilon homodimer protein (P07766 23-126): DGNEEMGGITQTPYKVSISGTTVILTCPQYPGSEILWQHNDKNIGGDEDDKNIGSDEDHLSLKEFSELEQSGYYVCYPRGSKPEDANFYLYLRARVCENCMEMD

B1: H1647L0581 (antibody, V domains shown)
VH: QVQLVESGGGLVQPGRSLRLSCAASGFKFSNTWFHWVRQAPGKGLEWVAQIKDYYNDYAAYYAPSVKGRFTISRDDSKNSIYLQMNSLKTEDTAVYYCHYVHYASASTLLPAEGVDAWGQGTTVTVSS
VL: DIVMTQSPLSLPVTPGEPASISCQPSQEVVHMNRNTYLHWYQQKPGQAPRLLIYKVSNRFPGVPDRFSGSGSGTDFTLKISRVEAEDVGVYYCAQGTSHPFTFGQGTKLEIK
The term Kd denotes the free concentration of one partner at which half of the binding sites on the other are occupied at equilibrium, for simple one-to-one binding. As usually defined, the koff is the rate constant with which the complex falls apart. For orientation: kon means the second-order rate constant of association. In test [1], B1 came in with a dissociation constant (Kd) of 2280 nM, a koff of 0.101 s⁻¹ and a kon of 44300 M⁻¹ s⁻¹.

B2: Ctrl/Ctrl × CD3 trispecific antibody (antibody, part only; not given: control Fvs, constant regions, Fc, V domains shown, not shown: another chain or arm of the molecule; a dimerising Fc or GST; large carriers)
VH: QVQLVESGGGLVQPGRSLRLSCAASGFTFSNAWMHWVRQAPGKGLEWVAQIKDRANSYNTYYAESVKGRFTISRDDSKNSIYLQMNSLKTEDTAVYYCRYVHYTTYAGSSFSYGVDAWGQGTTVTVSS
VL: DIVMTQSPLSLPVTPGEPASISCRSSQPLVHSNRNTYLHWYQQKPGQAPRLLIYKVSNRFSGVPDRFSGSGSGTDFTLKISRVEAEDVGVYYCGQGTQVPYTFGQGTKLEIK
Regarding B2, in test [2], the Kd is 17.5 nM, the off-rate (koff) worked out at 0.00147 s⁻¹ and the association rate constant (kon) came to 83700 M⁻¹ s⁻¹.

B3: GPC3/Ctrl × CD3 trispecific antibody (antibody, part only; not given: control Fv, constant regions, Fc, V domains shown, not shown: another chain or arm of the molecule; a dimerising Fc or GST; large carriers; small tags and cut ends)
VH 1: QVQLVESGGGLVQPGRSLRLSCAASGFTFSNAWMHWVRQAPGKGLEWVAQIKDRANSYNTYYAESVKGRFTISRDDSKNSIYLQMNSLKTEDTAVYYCRYVHYTTYAGSSFSYGVDAWGQGTTVTVSS
VL 1: DIVMTQSPLSLPVTPGEPASISCRSSQPLVHSNRNTYLHWYQQKPGQAPRLLIYKVSNRFSGVPDRFSGSGSGTDFTLKISRVEAEDVGVYYCGQGTQVPYTFGQGTKLEIK
VH 2: QVQLVQSGAEVKKPGASVTVSCKASGYTFTDYEMHWIRQPPGEGLEWIGAIDGPTPDTAYSEKFKGRVTLTADKSTSTAYMELSSLTSEDTAVYYCTRFYSYTYWGQGTLVTVSS
VL 2: DIVMTQSPLSLPVTPGEPASISCRSSQPLVHSNRNTYLHWYQQKPGQAPRLLIYKVSNRFSGVPDRFSGSGSGTDFTLKISRVEAEDVGVYYCGQGTQVPYTFGQGTKLEIK
Regarding B3, in test [2], the dissociation constant (Kd) is 17.8 nM, the koff was 0.00151 s⁻¹ and the kon was 85000 M⁻¹ s⁻¹.

B4: CE115HA000/GLS3000 H27dD (antibody, IgG1, name in Kabat numbering, V domains shown)
VH: QVQLVESGGGVVQPGRSLRLSCAASGFTFSNAWMHWVRQAPGKGLEWVAQIKAKSNNYATYYAESVKGRFTISRDDSKNSLYLQMNSLKTEDTAVYYCRYVHYGAYYGVDAWGQGTTVTVSS
VL: DIVMTQSPLSLPVTPGEPASISCRSSQSLVDSNRNTYLHWYQQKPGQAPRLLIYKVSNRFSGVPDRFSGSGSGTDFTLKISRVEAEDVGVYYCGQGTQVPYTFGQGTKLEIK
With B4, the KD ratio to GLS3000 in test [3] was 13600.

B5: CE115HA000/GLS3000 N28D (antibody, IgG1, name in Kabat numbering, V domains shown)
VH: QVQLVESGGGVVQPGRSLRLSCAASGFTFSNAWMHWVRQAPGKGLEWVAQIKAKSNNYATYYAESVKGRFTISRDDSKNSLYLQMNSLKTEDTAVYYCRYVHYGAYYGVDAWGQGTTVTVSS
VL: DIVMTQSPLSLPVTPGEPASISCRSSQSLVHSDRNTYLHWYQQKPGQAPRLLIYKVSNRFSGVPDRFSGSGSGTDFTLKISRVEAEDVGVYYCGQGTQVPYTFGQGTKLEIK
In the case of B5, the KD ratio to GLS3000 in test [3] was found to be 4460.

B6: CE115HA000/GLS3000 G91S (antibody, IgG1, name in Kabat numbering, V domains shown)
VH: QVQLVESGGGVVQPGRSLRLSCAASGFTFSNAWMHWVRQAPGKGLEWVAQIKAKSNNYATYYAESVKGRFTISRDDSKNSLYLQMNSLKTEDTAVYYCRYVHYGAYYGVDAWGQGTTVTVSS
VL: DIVMTQSPLSLPVTPGEPASISCRSSQSLVHSNRNTYLHWYQQKPGQAPRLLIYKVSNRFSGVPDRFSGSGSGTDFTLKISRVEAEDVGVYYCGQSTQVPYTFGQGTKLEIK
For B6, the KD ratio to GLS3000 in test [3] came out at 72100.

B7: CE115HA000/GLS3000 H34R (antibody, IgG1, name in Kabat numbering, V domains shown)
VH: QVQLVESGGGVVQPGRSLRLSCAASGFTFSNAWMHWVRQAPGKGLEWVAQIKAKSNNYATYYAESVKGRFTISRDDSKNSLYLQMNSLKTEDTAVYYCRYVHYGAYYGVDAWGQGTTVTVSS
VL: DIVMTQSPLSLPVTPGEPASISCRSSQSLVHSNRNTYLRWYQQKPGQAPRLLIYKVSNRFSGVPDRFSGSGSGTDFTLKISRVEAEDVGVYYCGQGTQVPYTFGQGTKLEIK
Consider B7, for which the KD ratio to GLS3000 in test [3] came out at 85800.
